According to US11325966:

How the values were obtained:
Assay in all cases: cell-based or functional assay
[1] = molecular target: HIV-1 Env of pseudovirus R3265.c06 (HIV-1)
[2] = molecular target: HIV-1 Env of pseudovirus Q259.d2.17 (HIV-1)
[3] = molecular target: HIV-1 Env of pseudovirus C2101.c01 (HIV-1)
[4] = molecular target: HIV-1 Env of pseudovirus 231966.c02 (HIV-1)
[5] = molecular target: HIV-1 Env of pseudovirus T278-50 (HIV-1)
[6] = molecular target: HIV-1 Env of pseudovirus WEAU_d15_410_787 (HIV-1)
[7] = molecular target: HIV-1 Env of pseudovirus Ce1172_H1 (HIV-1)
[8] = molecular target: HIV-1 Env of pseudovirus ZM249M.PL1 (HIV-1)
[9] = molecular target: HIV-1 Env of pseudovirus 235-47 (HIV-1)
[10] = molecular target: HIV-1 Env of pseudovirus CNE30 (HIV-1)
[11] = molecular target: HIV-1 Env of pseudovirus BJOX015000.11.5 (HIV-1)
[12] = molecular target: HIV-1 Env of pseudovirus C1080.c03 (HIV-1)
[13] = molecular target: HIV-1 Env of pseudovirus 3415.v1.c1 (HIV-1)
[14] = molecular target: HIV-1 Env of pseudovirus Du172.17 (HIV-1)
[15] = molecular target: HIV-1 Env of pseudovirus X1193_c1 (HIV-1)
[16] = molecular target: HIV-1 Env of pseudovirus RHPA4259.7 (HIV-1)
[17] = molecular target: HIV-1 Env of pseudovirus 3103.v3.c10 (HIV-1)
[18] = molecular target: HIV-1 Env of pseudovirus PVO.4 (HIV-1)
[19] = molecular target: HIV-1 Env of pseudovirus BF1266.431a (HIV-1)
[20] = molecular target: HIV-1 Env of pseudovirus 231965.c01 (HIV-1)
[21] = molecular target: HIV-1 Env of pseudovirus Q23.17 (HIV-1)
[22] = molecular target: HIV-1 Env of pseudovirus WITO4160.33 (HIV-1)
[23] = molecular target: HIV-1 Env of pseudovirus CNE53 (HIV-1)
[24] = molecular target: HIV-1 Env of pseudovirus ZM233M.PB6 (HIV-1)
[25] = molecular target: HIV-1 Env of pseudovirus QH0692.42 (HIV-1)
[26] = molecular target: HIV-1 Env of pseudovirus ZM214M.PL15 (HIV-1)
[27] = molecular target: HIV-1 Env of pseudovirus Du422.1 (HIV-1)
[28] = molecular target: HIV-1 Env of pseudovirus MS208.A1 (HIV-1)
[29] = molecular target: HIV-1 Env of pseudovirus 263-8 (HIV-1)
[30] = molecular target: HIV-1 Env of pseudovirus Ce1176_A3 (HIV-1)
[31] = molecular target: HIV-1 Env of pseudovirus BJOX025000.01.1 (HIV-1)
[32] = molecular target: HIV-1 Env of pseudovirus HIV-0013095-2.11 (HIV-1)
[33] = molecular target: HIV-1 Env of pseudovirus 3016.v5.c45 (HIV-1)
[34] = molecular target: HIV-1 Env of pseudovirus CAP210.2.00.E8 (HIV-1)
[35] = molecular target: HIV-1 Env of pseudovirus HIV-16845-2.22 (HIV-1)
[36] = molecular target: HIV-1 Env of pseudovirus THRO4156.18 (HIV-1)
[37] = molecular target: HIV-1 Env of pseudovirus BJOX009000.02.4 (HIV-1)
[38] = molecular target: HIV-1 Env of pseudovirus CNE8 (HIV-1)
[39] = molecular target: HIV-1 Env of pseudovirus R1166.c01 (HIV-1)
[40] = molecular target: HIV-1 Env of pseudovirus P0402_c2_11 (HIV-1)

Work on PGT121 (antibody) yielded an IC50 in TZM-bl assay [1] greater than 10 µg/mL, an IC80 in TZM-bl assay [1] greater than 10 µg/mL and an IC50 in TZM-bl assay [2] of 3.07 µg/mL. It also gave an IC80 in TZM-bl assay [2] greater than 10 µg/mL, an IC50 in TZM-bl assay [3] greater than 10 µg/mL and an IC80 in TZM-bl assay [3] greater than 10 µg/mL. For the same substance, the IC50 in TZM-bl assay [4] was greater than 10 µg/mL, the IC80 in TZM-bl assay [4] was greater than 10 µg/mL and the IC50 in TZM-bl assay [5] was greater than 10 µg/mL. For the same substance, the IC80 in TZM-bl assay [5] was greater than 10 µg/mL, the IC50 in TZM-bl assay [6] was 0.017 µg/mL and the IC80 in TZM-bl assay [6] was 0.062 µg/mL. It also gave an IC50 in TZM-bl assay [7] of 7 ng/mL, an IC80 in TZM-bl assay [7] of 0.03 µg/mL and an IC50 in TZM-bl assay [8] greater than 10 µg/mL. It also gave an IC80 in TZM-bl assay [8] greater than 10 µg/mL, an IC50 in TZM-bl assay [9] of 0.259 µg/mL and an IC80 in TZM-bl assay [9] of 1.6 µg/mL. It also gave an IC50 in TZM-bl assay [10] of 0.088 µg/mL, an IC80 in TZM-bl assay [10] of 0.288 µg/mL and an IC50 in TZM-bl assay [11] greater than 10 µg/mL. For the same substance, the IC80 in TZM-bl assay [11] was greater than 10 µg/mL, the IC50 in TZM-bl assay [12] was greater than 10 µg/mL and the IC80 in TZM-bl assay [12] was greater than 10 µg/mL. It also gave an IC50 in TZM-bl assay [13] greater than 10 µg/mL, an IC80 in TZM-bl assay [13] greater than 10 µg/mL and an IC50 in TZM-bl assay [14] of 0.062 µg/mL. For the same substance, the IC80 in TZM-bl assay [14] was 0.531 µg/mL, the IC80 in TZM-bl assay [15] was 0.088 µg/mL and the IC50 in TZM-bl assay [16] was 0.013 µg/mL. The IC80 in TZM-bl assay [16] was 0.046 µg/mL, the IC50 in TZM-bl assay [17] was 0.024 µg/mL and the IC80 in TZM-bl assay [17] was 0.073 µg/mL. The IC50 in TZM-bl assay [18] was 0.094 µg/mL, the IC80 in TZM-bl assay [18] was 0.45 µg/mL and the IC50 in TZM-bl assay [19] was greater than 10 µg/mL. For the same substance, the IC80 in TZM-bl assay [19] was greater than 10 µg/mL, the IC50 in TZM-bl assay [20] was greater than 10 µg/mL and the IC80 in TZM-bl assay [20] was greater than 10 µg/mL. For the same substance, the IC50 in TZM-bl assay [21] was 5 ng/mL, the IC80 in TZM-bl assay [21] was 0.017 µg/mL and the IC50 in TZM-bl assay [22] was 0.301 µg/mL. It also gave an IC80 in TZM-bl assay [22] of 3.2 µg/mL, an IC50 in TZM-bl assay [23] of 0.014 µg/mL and an IC80 in TZM-bl assay [23] of 0.062 µg/mL. For the same substance, the IC50 in TZM-bl assay [24] was 2.81 µg/mL, the IC80 in TZM-bl assay [24] was greater than 10 µg/mL and the IC50 in TZM-bl assay [25] was 0.498 µg/mL. For the same substance, the IC80 in TZM-bl assay [25] was 8.51 µg/mL, the IC50 in TZM-bl assay [26] was 0.288 µg/mL and the IC80 in TZM-bl assay [26] was 2.46 µg/mL. The IC50 in TZM-bl assay [27] was 0.017 µg/mL, the IC80 in TZM-bl assay [27] was 0.088 µg/mL and the IC50 in TZM-bl assay [28] was greater than 10 µg/mL. The IC80 in TZM-bl assay [28] was greater than 10 µg/mL, the IC50 in TZM-bl assay [29] was 0.647 µg/mL and the IC80 in TZM-bl assay [29] was 4.68 µg/mL. It also gave an IC80 in TZM-bl assay [30] of 0.063 µg/mL, an IC50 in TZM-bl assay [31] greater than 10 µg/mL and an IC80 in TZM-bl assay [31] greater than 10 µg/mL. For the same substance, the IC50 in TZM-bl assay [32] was greater than 10 µg/mL, the IC80 in TZM-bl assay [32] was greater than 10 µg/mL and the IC50 in TZM-bl assay [33] was greater than 10 µg/mL. It also gave an IC80 in TZM-bl assay [33] greater than 10 µg/mL, an IC50 in TZM-bl assay [34] greater than 10 µg/mL and an IC80 in TZM-bl assay [34] greater than 10 µg/mL. For the same substance, the IC50 in TZM-bl assay [35] was 8.51 µg/mL, the IC80 in TZM-bl assay [35] was greater than 10 µg/mL and the IC50 in TZM-bl assay [36] was greater than 10 µg/mL. The IC80 in TZM-bl assay [36] was greater than 10 µg/mL, the IC50 in TZM-bl assay [37] was 9 µg/mL and the IC80 in TZM-bl assay [37] was greater than 10 µg/mL. It also gave an IC50 in TZM-bl assay [38] greater than 10 µg/mL, an IC80 in TZM-bl assay [38] greater than 10 µg/mL and an IC50 in TZM-bl assay [39] greater than 10 µg/mL. The IC80 in TZM-bl assay [39] was greater than 10 µg/mL and the IC50 in TZM-bl assay [40] was 7 ng/mL.
